First the molecules themselves.
T1: recombinant human LAG3 (Sino Biological Inc.) (human, UniProt P18627 23-450)
T1 construct: Bought recombinant protein; also called CD223; biotinylated recombinant human LAG3
T1 sequence (looked up): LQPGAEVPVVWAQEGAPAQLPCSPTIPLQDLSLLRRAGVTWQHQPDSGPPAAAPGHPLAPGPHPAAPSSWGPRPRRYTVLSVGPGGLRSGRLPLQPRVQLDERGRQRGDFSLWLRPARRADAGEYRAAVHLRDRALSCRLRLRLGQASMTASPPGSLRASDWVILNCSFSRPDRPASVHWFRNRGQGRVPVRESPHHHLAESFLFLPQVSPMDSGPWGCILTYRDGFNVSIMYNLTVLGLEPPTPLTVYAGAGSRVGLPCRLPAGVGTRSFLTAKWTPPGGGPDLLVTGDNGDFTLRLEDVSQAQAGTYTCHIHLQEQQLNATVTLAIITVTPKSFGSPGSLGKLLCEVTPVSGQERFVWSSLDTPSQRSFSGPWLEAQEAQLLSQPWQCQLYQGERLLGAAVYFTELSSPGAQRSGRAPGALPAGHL

B1: DNV1 Fab (Fab, V domains shown)
VH: QVQLQQWGAGLLKPSETLSLTCAVYGGSFSGYYWSWIRQPPGKGLEWIGEINHSGSTNYNPSLKSRVTISVDTSKNQFSLKLSSVTAADTAVYYCARITPRFDAFDIWGQGTMVTVSS
VL: QSVLTQPPSVSAAPGRKVTISCSGSSSNIGTNSVSWYQQFPGTAPKLLIYDNNKRLSRIPDRFSGSKSGTSASLAISGLQSEDEADYYCAAWDDSLTGYVFGTGTKVTVL
notes: Human Fab from a phage library, hexahistidine-tagged, detected through a FLAG tag, made in E. coli HB2151
B2: DNV5 Fab (Fab, V domains shown)
VH: QVQLVQSGAEVKKPGASVKVSCKASGGTFSSYAISWVRQAPGQGLEWMGGIIPIFGTANYAQKFQGRVTITADESTSTAYMELSSLRSEDTAVYYCARASPPAAYYYYYGMDVWGQGTTVTVSS
VL: DIQMTQSPSSLSASVGDRVTITCQASQDISNYLNWYQQKPGKAPKLLIYAASILQSGVPSRFSGSGSGTDFTLTISSLQPEDFATYYCQQSHSYSETFGQGTKVEIK
notes: as for B1
B3: DNV3 Fab (Fab, V domains shown)
VH: EVQLVQSGAEVKKPGASVKVSCKASGYTFTSYGISWVRQAPGQGLEWMGWISAYNGNTNYAQKLQGRVTMTTDTSTSTAYMELRSLRSDDTAVYYCARDSSSWWVDAFDIWGQGTMVTVSS
VL: QSVLTQPPSVSAAPGQKVTISCSGSTSNIAINYVSWYQQVPGTVPKLLIYDDDKRPSGIPDRFSGSKSGTSATLDISGLQTGDEAHYYCGVWDNSLLAVLFGGGTSLTVL
notes: as for B1
B4: DNV3.2 Fab (Fab, V domains shown)
VH: EVQLVQSGAEVKKPGASVKVSCKASGYTFTSYGISWVRQAPGQGLEWMGWISAYNGNTNYAQKLQGRVTMTTDTSTSTAYMELRSLRSDDTAVYYCARDSSSWWVDAFDIWGQGTMVTVSS
VL: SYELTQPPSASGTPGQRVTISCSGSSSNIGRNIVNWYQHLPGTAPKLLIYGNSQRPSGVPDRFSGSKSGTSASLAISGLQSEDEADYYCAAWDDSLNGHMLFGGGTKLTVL
notes: Light-chain-shuffled Fab variant of DNV3
B5: DNV3.13 Fab (Fab, V domains shown)
VH: EVQLVQSGAEVKKPGASVKVSCKASGYTFTSYGISWVRQAPGQGLEWMGWISAYNGNTNYAQKLQGRVTMTTDTSTSTAYMELRSLRSDDTAVYYCARDSSSWWVDAFDIWGQGTMVTVSS
VL: SYVLTQPPSASGTPGQRVTMSCSGRYSNIGGNTVNWYHHLPGTAPTLLIYSNDQRPSGVPDRFSGSKSGTSASLAISGVQSEDEADYYCAAWDDNLNGLVFGTGTKVTVL
notes: as for B4
B6: DNV3.1 Fab (Fab, V domains shown)
VH: EVQLVQSGAEVKKPGASVKVSCKASGYTFTSYGISWVRQAPGQGLEWMGWISAYNGNTNYAQKLQGRVTMTTDTSTSTAYMELRSLRSDDTAVYYCARDSSSWWVDAFDIWGQGTMVTVSS
VL: LPVLTQPPSASGTPGQRVTISCSGSSSNIGGNSVNWYQQLPGTAPKLLIYSDNQRPSGVPDRFSGSKSGTSASLAISGLQSEEEADYYCAAWDDSLNAYVFGPGTKVTVL
B7: DNV3.15 Fab (Fab, V domains shown)
VH: EVQLVQSGAEVKKPGASVKVSCKASGYTFTSYGISWVRQAPGQGLEWMGWISAYNGNTNYAQKLQGRVTMTTDTSTSTAYMELRSLRSDDTAVYYCARDSSSWWVDAFDIWGQGTMVTVSS
VL: LPVLTQPPSASGTPGQRITISCSGSSSNIGSATVNWYQHLPGTAPKLLIYGDNQRPSGVADRFSGSKSGTSASLEIRGLQSEDEADYYCAAWDGSLDGVMFGGGTRVNVL
notes: as for B4
B8: DNV3.14 Fab (Fab, V domains shown)
VH: EVQLVQSGAEVKKPGASVKVSCKASGYTFTSYGISWVRQAPGQGLEWMGWISAYNGNTNYAQKLQGRVTMTTDTSTSTAYMELRSLRSDDTAVYYCARDSSSWWVDAFDIWGQGTMVTVSS
VL: PYVLTQPPSVSGAPRQRVTISCSGGSSNIASNAVNWYQQFPGKAPKLLVYYDDLLPSGVSDRFSGSKTGTSASLAISALQSEDEADYFCAAWDDSLNGVLFGGGTKLTVL
notes: as for B4
B9: DNV3.7 Fab (Fab, V domains shown)
VH: EVQLVQSGAEVKKPGASVKVSCKASGYTFTSYGISWVRQAPGQGLEWMGWISAYNGNTNYAQKLQGRVTMTTDTSTSTAYMELRSLRSDDTAVYYCARDSSSWWVDAFDIWGQGTMVTVSS
VL: SYELTQPPSVSEAPRQRVTISCSGSSSNIGSNAVSWYQQVPRKAPKLLVYYDDLLPSGVSDRFSGSKSGTSASLAIRGLQSEDEADYYCAAWDDSLNAFVFGTGTKVTVL
notes: as for B4
B10: DNV3.8 Fab (Fab, V domains shown)
VH: EVQLVQSGAEVKKPGASVKVSCKASGYTFTSYGISWVRQAPGQGLEWMGWISAYNGNTNYAQKLQGRVTMTTDTSTSTAYMELRSLRSDDTAVYYCARDSSSWWVDAFDIWGQGTMVTVSS
VL: SYELTQPPSVSEAPRQRATISCSGSRSNIGNNAVSWYQRLPGQAPKLLIYYDTFLPSGVSDRFSGSKSGTSASLTISGLQSDDEADYYCAAWDDSLNGVLFGGGTKLTVQ
notes: as for B4
B11: DNV3.4 Fab (Fab, V domains shown)
VH: EVQLVQSGAEVKKPGASVKVSCKASGYTFTSYGISWVRQAPGQGLEWMGWISAYNGNTNYAQKLQGRVTMTTDTSTSTAYMELRSLRSDDTAVYYCARDSSSWWVDAFDIWGQGTMVTVSS
VL: SYVLTQPPSTSAAPGQTVTILCFGGGSNLQSNTVNWYRHVSGSAPKLLIHSDDERASGVSPRLSGSKSGGSASLILRGLQPEDEGDYYCAAWDDRLDAYVFGTGTKVTVL
notes: as for B4
B12: DNV3.3 Fab (Fab, V domains shown)
VH: EVQLVQSGAEVKKPGASVKVSCKASGYTFTSYGISWVRQAPGQGLEWMGWISAYNGNTNYAQKLQGRVTMTTDTSTSTAYMELRSLRSDDTAVYYCARDSSSWWVDAFDIWGQGTMVTVSS
VL: QSVLTQPPSASGTPGQRVTISCSGSSSNIGNNAVNWYQQLPGKAPKLLIYYDDLLPSGVSDRFSGSKSGTSASLAISGLRSEDEGDYFCAAWDDSLSGQVLFGGGTKLTVL
notes: as for B4
B13: DNV3.18 Fab (Fab, V domains shown)
VH: EVQLVQSGAEVKKPGASVKVSCKASGYTFTSYGISWVRQAPGQGLEWMGWISAYNGNTNYAQKLQGRVTMTTDTSTSTAYMELRSLRSDDTAVYYCARDSSSWWVDAFDIWGQGTMVTVSS
VL: SVVTQPPSVSEAPRQRVTISCSGSSSNIGNNAVNWYQQLPGKAPKLLIYYDDLLPSGVSDRFSGSKSGTSASLAISGLQSEDEADYYCAAWDDSLNAVVFGGGTKLTVL
notes: as for B4
B14: DNV3.5 Fab (Fab, V domains shown)
VH: EVQLVQSGAEVKKPGASVKVSCKASGYTFTSYGISWVRQAPGQGLEWMGWISAYNGNTNYAQKLQGRVTMTTDTSTSTAYMELRSLRSDDTAVYYCARDSSSWWVDAFDIWGQGTMVTVSS
VL: QSVLTQPPSASGTPGQRVTISCSGSTSNIGGNTVNWYQQLPGTAPKLLIYSSNRRPSGVPDRFSGSTSGTSASLAISGLQSEDEADYYCAAWDDSLIAYVFGTGTKVTVL
notes: as for B4
B15: DNV3.9 Fab (Fab, V domains shown)
VH: EVQLVQSGAEVKKPGASVKVSCKASGYTFTSYGISWVRQAPGQGLEWMGWISAYNGNTNYAQKLQGRVTMTTDTSTSTAYMELRSLRSDDTAVYYCARDSSSWWVDAFDIWGQGTMVTVSS
VL: LPVLTQPPSVSGAPRQRVTISCSGGSSNIASNAVNWYQQFPGKAPKLLVYYDDLLPSGVSDRFSGSKTGTSASLAISALQSEDEADYFCAAWDDSLNGVLFGGGTKLTVL
notes: as for B4
B16: DNV3.16 Fab (Fab, V domains shown)
VH: EVQLVQSGAEVKKPGASVKVSCKASGYTFTSYGISWVRQAPGQGLEWMGWISAYNGNTNYAQKLQGRVTMTTDTSTSTAYMELRSLRSDDTAVYYCARDSSSWWVDAFDIWGQGTMVTVSS
VL: SYVLTQPPSASGTPGQRVTISCSGGSSNIASNAVNWYQQFPGKAPKLLVYYDDLLPSGVSDRFSGSKTGTSASLAISALQSEDEADYFCAAWDDSLNGVLFGGGTKLTVL
notes: as for B4
B17: DNV3.12 Fab (Fab, V domains shown)
VH: EVQLVQSGAEVKKPGASVKVSCKASGYTFTSYGISWVRQAPGQGLEWMGWISAYNGNTNYAQKLQGRVTMTTDTSTSTAYMELRSLRSDDTAVYYCARDSSSWWVDAFDIWGQGTMVTVSS
VL: SYVLTQPPSASGTPGQRVTISCSGSSSNIGSNIVNWYQHLPGTAPKLLIYGNSQRPSGVSDRFSGSKSGTSASLAISGLQSEDEANYYCAVWDDSLDGHLLFGGGTKLTVL
notes: as for B4
B18: DNV6 Fab (Fab, V domains shown)
VH: EVQLVQSGAEVKKPGESLKISCKGSGYSFTSYWIGWVRQMPGKGLEWMGIIYPGDSDTRYSPSFQGQVTISADKSISTAYLQWSSLKASDTAMYYCASGAPGYYYDSSGYYAFDIWGQGTMVTVSS
VL: QSVVTQPPSVSGAPGQRVTVSCTGSSSNIGADFDVHWYQQLPGTAPKLLIYGNTNRPSGVPDRFSGSKSGTSASLAITGLQAEDEADYYCQSYDNSLSGVVFGGGTKVTVL
notes: as for B1

Consider 18 molecules from patent US20210115135A1 (ZHEJIANG SHIMAI PHARMACEUTICAL, published 2021).

“And” between values parts separate entries of the source, which are not always exact repeats. Equal values may be shown once. Where only a bound is given, the exact number is not on record here.

For orientation: EC50 means the concentration at which the effect is half-maximal.

This assay addresses T1, recombinant human LAG3 (Sino Biological …). Kind of assay: ELISA, recombinant human LAG3 coated, Fab detected by anti-FLAG-HRP. On the procedure: The hexahistidine-tagged antibodies were expressed in E. coli strain HB2151 and purified from the soluble fraction of periplasm by using the Ni-NTA resin. 7 monoclonal antibodies against human LAG3 were selected by panning a large phage-display library of naïve human antibodies in the format of antigen-binding fragment (Fab). Then ELISA was performed according to standard protocols. Briefly, recombinant human LAG3 (Sino Biological Inc.) was coated on Corning EIA/RIA high-binding 96-well plates (Corning Inc.) at 50 ng per well overnight at 4° C. and blocked with 3% nonfat milk in PBS (pH7.4). Fivefold serially diluted antibodies were added and incubated at room temperature for 2 h. The plates were washed with PBS containing 0.05% Tween 20. Bound antibodies were detected by HRP-conjugated anti-FLAG tag antibody (Sigma-Aldrich). The assay was developed at room temperature with TMB substrate (Sigma-Aldrich) and monitored at 450 nm with a microplate reader.
Turning to B1, the EC50 is at most 10 nM.

As for B2, the EC50 was at most 10 nM.

With B3, the EC50 was 6 nM and ≤ 10 nM.

Regarding B4, the binding result was “binds”.

For B5, the binding result was “binds”.

On to B6, for which the binding result was “binds”.

Take B7: the binding result is reported as “binds”.

Consider B8, for which the binding result was “binds”.

For B9, the binding result is on record as “binds”.

Take B10: the binding result is reported as “binds”.

Regarding B11, the binding result was “binds”.

B12: the binding result is on record as “binds”.

For the molecule B13, the binding result is given as “binds”.

Turning to B14, the binding result was “binds”.

For the molecule B15, the binding result is given as “binds”.

B16: the binding result is “binds”.

Regarding B17, the binding result was “binds”.

For the molecule B18, the EC50 was at most 10 nM.
